Data: patent publication US20110059082A1

Key:
[1] = target: complement factor C1q (purified recombinant C1q) (UniProt P02745); experiment: flow cytometry, C1q binding to antibody-coated PBMCs, FITC anti-C1q; antibody 1.2 µg/ml
[2] = target: complement factor C1q (purified recombinant C1q) (UniProt P02745); experiment: flow cytometry, C1q binding to antibody-coated PBMCs, FITC anti-C1q; antibody 150 µg/ml
[3] = target: complement factor C1q (purified recombinant C1q) (UniProt P02745); experiment: flow cytometry, C1q binding to antibody-coated PBMCs, FITC anti-C1q; antibody 2.3 µg/ml
[4] = target: complement factor C1q (purified recombinant C1q) (UniProt P02745); experiment: flow cytometry, C1q binding to antibody-coated PBMCs, FITC anti-C1q; antibody 4.7 µg/ml
[5] = target: complement factor C1q (purified recombinant C1q) (UniProt P02745); experiment: flow cytometry, C1q binding to antibody-coated PBMCs, FITC anti-C1q; antibody 9.4 µg/ml
[6] = target: complement factor C1q (purified recombinant C1q) (UniProt P02745); experiment: flow cytometry, C1q binding to antibody-coated PBMCs, FITC anti-C1q; antibody 18.8 µg/ml
[7] = target: complement factor C1q (purified recombinant C1q) (UniProt P02745); experiment: flow cytometry, C1q binding to antibody-coated PBMCs, FITC anti-C1q; antibody 37.5 µg/ml
[8] = target: complement factor C1q (purified recombinant C1q) (UniProt P02745); experiment: flow cytometry, C1q binding to antibody-coated PBMCs, FITC anti-C1q; antibody 75.0 µg/ml

Sequence of complement factor C1q (purified recombinant C1q) (P02745 23-245, chain 1 of 3): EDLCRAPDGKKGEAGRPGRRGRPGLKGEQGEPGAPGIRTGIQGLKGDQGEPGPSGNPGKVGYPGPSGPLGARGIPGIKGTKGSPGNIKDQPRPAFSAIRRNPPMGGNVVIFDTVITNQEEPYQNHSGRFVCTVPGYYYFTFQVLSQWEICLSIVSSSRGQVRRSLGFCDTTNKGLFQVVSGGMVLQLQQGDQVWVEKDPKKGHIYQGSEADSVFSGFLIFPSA
Sequence of complement factor C1q (purified recombinant C1q) (P02746 28-253, chain 2 of 3, further chain): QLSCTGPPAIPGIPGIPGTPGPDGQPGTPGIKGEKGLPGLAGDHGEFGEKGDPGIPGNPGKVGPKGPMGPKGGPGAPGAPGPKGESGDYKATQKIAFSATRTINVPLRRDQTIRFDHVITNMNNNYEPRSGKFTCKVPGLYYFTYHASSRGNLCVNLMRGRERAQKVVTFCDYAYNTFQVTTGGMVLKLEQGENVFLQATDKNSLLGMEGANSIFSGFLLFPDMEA
Sequence of complement factor C1q (purified recombinant C1q) (P02747 29-245, chain 3 of 3, further chain): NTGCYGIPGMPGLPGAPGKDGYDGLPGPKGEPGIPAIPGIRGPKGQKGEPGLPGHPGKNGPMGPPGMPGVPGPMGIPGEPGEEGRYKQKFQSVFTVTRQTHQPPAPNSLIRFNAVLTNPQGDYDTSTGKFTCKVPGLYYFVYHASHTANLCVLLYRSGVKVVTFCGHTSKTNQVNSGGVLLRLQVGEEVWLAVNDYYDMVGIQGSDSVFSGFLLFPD

Row | Mean fluorescence intensity [1] [MFI] | Mean fluorescence intensity [2] [MFI] | Mean fluorescence intensity [3] [MFI] | Mean fluorescence intensity [4] [MFI] | Mean fluorescence intensity [5] [MFI] | Mean fluorescence intensity [6] [MFI] | Mean fluorescence intensity [7] [MFI] | Mean fluorescence intensity [8] [MFI] | Substance
1 | 302 | 782 | 371 | 491 | 541 | 672 | 732 | 766 | ATG (Tecelac) (antibody)
2 | 193 | 199 | 199 | 198 | 210 | 217 | 205 | 200 | humanized B-F5 H37L/L4M IgG1 (BT061) (antibody)
